Measured values as given in publication PMC5734687 (PLoS ONE, 2017).
No end group written: not given here.

T1: synthetic peptide DATAEEEEDFGEEA corresponding to residues 427-440 of human β-tubulin (Homo sapiens)
T1 construct: also called β-tubulin peptide; source: synthetic peptide (Fmoc chemistry, ABI433A)
T1 chain: DATAEEEEDFGEEA-biotin

B1: IgA1 scFv (human), expressed with CyDisCo (scFv, V domains shown)
VH: EVQLVESGGGLVQPGGSLKLSCAASGFTLSGSNVHWVRQASGKGLEWVGRIKRNAESDATAYAASMRGRLTISRDDSKNTAFLQMNSLKSDDTAMYYCVIRGDVYNRQWGQGTLVTVSS
VL: DIVMTQSPLSLSVTPGEPASISCRSSQSLLRRDGHNDLEWYLQKPGQSPQPLIYLGSTRASGVPDRFSGSGSGTDFTLKIIRVEAEDAGTYYCMQNKQTPLTFGQGTRLEIK
notes: VL of the anti-beta-tubulin IgA1; linker, printed as (Gly4Ser)3; VH of the anti-beta-tubulin IgA1; Expected mass 27342 Da with disulfide bonds; also called IgA1-IgA1; parental scFv IgA1; source: E. coli BW25113 cytoplasm, co-expressed with CyDisCo (Erv1p and PDI), purified (IMAC, desalted)
B2: natalizumab scFv (IgG4 humanized), expressed without CyDisCo (scFv, V domains shown)
VH: QVQLVQSGAEVKKPGASVKVSCKASGFNIKDTYIHWVRQAPGQRLEWMGRIDPANGYTKYDPKFQGRVTITADTSASTAYMELSSLRSEDEAVYYCAREGYYGNYGVYAMDYWGQGTLVTVSS
VL: DIQMTQSPSSLSASVGDRVTITCKTSQDINKYMAWYQQTPGKAPRLLIHYTSALQPGIPSRFSGSGSGRDYTFTISSLQPEDIATYYCLQYDNLWTFGQGTKVEIK
notes: VL of natalizumab, as the VL of m5; linker, printed as (Gly4Ser)3; VH of natalizumab, as the VH of m5; expected mass 27755 Da); also called natalizumab - CyDisCo; Tysabri scFv; source: E. coli BW25113 cytoplasm, without CyDisCo (control vector pAG82), purified (IMAC, desalted); not shown: GSH6, C-terminal, kept
B3: natalizumab scFv (IgG4 humanized), expressed with CyDisCo (scFv, V domains shown)
VH: B2 VH
VL: B2 VL
notes: VL of natalizumab; linker, printed as (Gly4Ser)3; VH of natalizumab; expected mass 27751 Da); also called natalizumab-natalizumab; Tysabri scFv; source: E. coli BW25113 cytoplasm, co-expressed with CyDisCo (Erv1p and PDI), purified (IMAC, desalted); not shown: GSH6, C-terminal, kept

Experiments:
[1] = target: HER2 fragment V529-P625, C-terminal GSH6 tag (UniProt P04626); assay: SPR; Biacore T200; biotinylated HER2 fragment V529-P625 immobilised on streptavidin chip (SA); scFv 0.2-5 μM in 50 mM sodium phosphate pH 7.4; triplicate
[2] = target: T1, synthetic peptide DATAEEEEDFGEEA …; assay: SPR; Biacore T200; C-terminally biotinylated β-tubulin peptide immobilised on streptavidin chip (SA); scFv 0.375-12 μM in 50 mM sodium phosphate pH 7.4; conditions: both partners purified
[3] = target: T2, full length human ITGA4 (antigen CD49, α4 subunit of VLA-4 receptor) (Homo sapiens, UniProt P13612); assay: far-Western, overlay or dot blot; dot blot: 80 ng full length ITGA4 spotted on Immobilon-P; 6 μg/mL scFv in TBS, 1 h, room temperature; detected with HRP-labelled anti-His tag antibody; conditions: both partners purified
T2 construct: integrin alpha-4 (ITGA4, CD49, α4 subunit of VLA-4), human, full length; also called ITG4A; ITGA4 full length

| Molecule | binding result [3] | also measured |
| --- | --- | --- |
| natalizumab framework-trastuzumab CDRs hybrid scFv, expressed with CyDisCo |  | Kd [1]: 147 nM |
| B1 |  | Kd [2]: 3560 nM |
| B2 | binds |  |
| B3 | binds |  |
